# T1: recombinant UBE2G2 (UniProt P60604 1-165)
# T1 construct: UBE2G2, ubiquitin-conjugating enzyme E2 G2, recombinant; Called His-UBE2G2 only in the charging assays; no tag is named for the pull-downs; also called His-UBE2G2; source: bought: R&D Systems (E2-680-100)
# T1 sequence: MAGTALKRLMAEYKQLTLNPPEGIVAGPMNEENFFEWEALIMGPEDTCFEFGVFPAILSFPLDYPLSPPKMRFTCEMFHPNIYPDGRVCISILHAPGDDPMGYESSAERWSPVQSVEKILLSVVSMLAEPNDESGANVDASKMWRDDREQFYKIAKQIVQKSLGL
# T2: recombinant UBE2K (UniProt P61086 1-200)
# T2 construct: UBE2K, ubiquitin-conjugating enzyme E2 K, recombinant; source: bought: R&D Systems (NBP2-35096)
# T2 sequence (looked up): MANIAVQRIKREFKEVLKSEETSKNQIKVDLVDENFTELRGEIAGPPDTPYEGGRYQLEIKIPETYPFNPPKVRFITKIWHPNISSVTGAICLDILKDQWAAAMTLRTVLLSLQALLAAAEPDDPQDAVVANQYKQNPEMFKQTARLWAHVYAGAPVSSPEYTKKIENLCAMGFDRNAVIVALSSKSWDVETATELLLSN
# B1: MBP-UFD (C1040A) (domain or fragment)
# chain: not shown
# notes: UBA1 ubiquitin fold domain (UFD), aa942-1058, with C1040A; also called MBP-UFD with cysteine mutation; source: recombinant
# B2: MBP-UFD (942-1058) (domain or fragment)
# chain: not shown
# notes: UBA1 C-terminal ubiquitin fold domain (UFD), aa942-1058; The pull-down methods name the construct 'AAD-UFD'; also called UFD fragment of UBA1
# B3: MBP-UFD (C1039A) (domain or fragment)
# chain: not shown
# notes: UBA1 ubiquitin fold domain (UFD), aa942-1058, with C1039A; also called MBP-UFD with cysteine mutation; source: recombinant
# Tests used:
# recombinant UBE2G2 = target: T1, recombinant UBE2G2; test: pull-down; MBP fusions of UBA1 fragments (5 ug) on beads, treated with AF 1.5 h and washed, then incubated with recombinant E2 2 h at room temperature in 150 mM NaCl, 10 mM Tris/HCl pH 7.4, 1 mM EDTA, 1 mM EGTA, 0.2% NP-40; immunoblot; in Fig. 2a also after iodoacetamide or with DTT; details: both partners purified
# recombinant UBE2K = target: T2, recombinant UBE2K; test: as above; details: both partners purified
Binder,binding result (recombinant UBE2G2),binding result (recombinant UBE2K)
B1,binds,
B2,binds,binds
B3,binds,

# From publication PMC10412574, “Auranofin targets UBA1 and enhances UBA1 activity by facilitating ubiquitin trans-thioesterification to E2 ubiquitin-conjugating enzymes” (Nature Communications, 2023)
